The values below are quoted from earlier work in publication PMC5156371.

Several values for one entry are separate records, joined by “and”; a condition that tells them apart may be missing. Equal values may be shown once. Read-outs that look alike come from different tables or passages of the source.

The target in data set [1] is MyD88 TIR (Homo sapiens) (UniProt Q99836).
The target in data set [2] is MAL TIR (Homo sapiens) (UniProt P58753).
Data set [3] deals with MyD88 TIR (Homo sapiens) (UniProt Q99836). The source holds these as a separate data set.
Data set [4] has as its target MAL TIR (Homo sapiens) (UniProt P58753). The source holds these as a separate data set.

As usually defined, the Kd is the constant that tells how readily two partners part at equilibrium. For A46 1-229 (from UniProt P26672), the Kd with MyD88 TIR (Homo sapiens) [1] was 460 nM and 520 nM; in the data set with MAL TIR (Homo sapiens) [2], 1440 nM and 1560 nM.

Consider A46 87-229 (from UniProt P26672), for which the Kd was 890 nM and 1240 nM with MyD88 TIR (Homo sapiens) [3]; 2300 nM and 2240 nM in the data set with MAL TIR (Homo sapiens) [4].
